Data on one substance can be found in patent publication US20160136234A1.

Targets include EphB3 (h) (human) (UniProt P54753); Fes (h) (human) (UniProt P07332); EphA7 (h) (human) (UniProt Q15375); cKit (h) (human) (UniProt P10721); SRPK1 (h) (human) (UniProt Q96SB4); EphA2 (h) (human) (UniProt P29317); MSK2 (h) (human) (UniProt O75676); Met(Y1248C) (h) (human) (UniProt P08581); Yes (h) (human) (UniProt P07947); Aurora-B (h) (human) (UniProt Q96GD4); MEK1 (h) (human) (UniProt Q02750); Arg (h) (human) (UniProt P42684); Abl (H396P) (h) (human) (UniProt P00519).

What all share (assay): cell-based or functional assay
The target in a further assay is T1, ARK5 (h) (human) (UniProt O60285).
T1 sequence (looked up): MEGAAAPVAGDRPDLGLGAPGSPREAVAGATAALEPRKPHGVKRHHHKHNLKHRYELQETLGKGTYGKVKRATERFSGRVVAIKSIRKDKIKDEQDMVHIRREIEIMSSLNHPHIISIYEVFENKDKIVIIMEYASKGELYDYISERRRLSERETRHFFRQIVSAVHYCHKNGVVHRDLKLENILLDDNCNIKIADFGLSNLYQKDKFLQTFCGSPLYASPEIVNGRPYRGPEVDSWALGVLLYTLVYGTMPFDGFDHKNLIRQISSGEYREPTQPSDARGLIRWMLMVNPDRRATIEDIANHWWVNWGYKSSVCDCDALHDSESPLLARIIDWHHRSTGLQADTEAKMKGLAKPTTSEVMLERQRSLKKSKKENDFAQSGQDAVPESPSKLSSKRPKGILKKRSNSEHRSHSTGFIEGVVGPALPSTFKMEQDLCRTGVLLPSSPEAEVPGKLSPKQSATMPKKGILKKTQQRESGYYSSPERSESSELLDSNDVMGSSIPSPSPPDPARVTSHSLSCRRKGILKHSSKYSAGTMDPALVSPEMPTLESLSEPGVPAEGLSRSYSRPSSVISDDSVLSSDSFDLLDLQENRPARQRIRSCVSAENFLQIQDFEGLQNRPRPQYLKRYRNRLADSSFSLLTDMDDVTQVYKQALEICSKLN

Assay [1] has as its target IR (h), activated (human) (UniProt P06213).
For assay [2], the target named is Hck (h) activated (human) (UniProt P08631).
In assay [3] the target is EGFR(T790M, L858R) (h) (human) (UniProt P00533).
The target of another assay is T2, Flt1 (h) (human) (UniProt P17948).
T2 sequence (looked up): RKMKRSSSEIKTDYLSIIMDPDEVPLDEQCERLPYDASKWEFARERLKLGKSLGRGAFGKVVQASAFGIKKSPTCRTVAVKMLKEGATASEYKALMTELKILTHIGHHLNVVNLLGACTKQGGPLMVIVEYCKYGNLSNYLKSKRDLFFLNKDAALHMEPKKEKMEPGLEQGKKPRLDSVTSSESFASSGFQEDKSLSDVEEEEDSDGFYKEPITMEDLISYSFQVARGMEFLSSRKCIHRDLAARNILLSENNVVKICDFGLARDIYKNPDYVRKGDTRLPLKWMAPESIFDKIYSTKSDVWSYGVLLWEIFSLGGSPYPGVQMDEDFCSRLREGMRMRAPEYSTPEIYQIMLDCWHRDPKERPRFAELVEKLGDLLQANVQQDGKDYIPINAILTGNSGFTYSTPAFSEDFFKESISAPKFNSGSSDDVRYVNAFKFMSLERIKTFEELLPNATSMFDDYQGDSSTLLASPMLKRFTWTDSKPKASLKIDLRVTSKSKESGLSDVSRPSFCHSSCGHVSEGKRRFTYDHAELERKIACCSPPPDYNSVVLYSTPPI

A further assay has as its target T3, IRAK4 (h) (human) (UniProt Q9NWZ3).
T3 sequence (looked up): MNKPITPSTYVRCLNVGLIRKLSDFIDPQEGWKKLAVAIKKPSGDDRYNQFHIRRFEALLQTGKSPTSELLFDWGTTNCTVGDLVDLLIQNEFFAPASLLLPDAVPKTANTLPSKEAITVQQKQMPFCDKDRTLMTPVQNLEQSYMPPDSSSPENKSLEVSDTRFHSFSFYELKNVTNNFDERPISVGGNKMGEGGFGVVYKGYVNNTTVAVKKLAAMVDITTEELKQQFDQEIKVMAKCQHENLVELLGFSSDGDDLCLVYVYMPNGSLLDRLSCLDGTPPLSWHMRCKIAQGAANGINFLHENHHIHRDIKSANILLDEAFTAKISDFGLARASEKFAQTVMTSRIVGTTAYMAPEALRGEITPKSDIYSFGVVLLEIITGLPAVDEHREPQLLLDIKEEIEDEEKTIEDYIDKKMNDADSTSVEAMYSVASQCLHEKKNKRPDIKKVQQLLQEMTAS

In a further assay the target is T4, Rse (h) (human) (UniProt Q06418).
T4 sequence (looked up): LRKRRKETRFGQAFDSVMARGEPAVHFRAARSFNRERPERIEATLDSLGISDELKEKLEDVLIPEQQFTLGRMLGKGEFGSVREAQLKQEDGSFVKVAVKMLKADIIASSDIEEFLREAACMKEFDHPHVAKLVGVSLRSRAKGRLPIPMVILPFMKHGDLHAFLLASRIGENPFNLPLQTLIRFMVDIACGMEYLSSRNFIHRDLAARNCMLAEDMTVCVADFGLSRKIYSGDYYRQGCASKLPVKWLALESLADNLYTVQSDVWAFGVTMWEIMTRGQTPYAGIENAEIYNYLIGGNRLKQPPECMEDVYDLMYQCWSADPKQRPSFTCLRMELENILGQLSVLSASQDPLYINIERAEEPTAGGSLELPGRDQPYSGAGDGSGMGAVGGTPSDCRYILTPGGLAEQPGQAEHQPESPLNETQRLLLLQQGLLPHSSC

Aurora-B (h) (human), sequence (Q96GD4 whole entry): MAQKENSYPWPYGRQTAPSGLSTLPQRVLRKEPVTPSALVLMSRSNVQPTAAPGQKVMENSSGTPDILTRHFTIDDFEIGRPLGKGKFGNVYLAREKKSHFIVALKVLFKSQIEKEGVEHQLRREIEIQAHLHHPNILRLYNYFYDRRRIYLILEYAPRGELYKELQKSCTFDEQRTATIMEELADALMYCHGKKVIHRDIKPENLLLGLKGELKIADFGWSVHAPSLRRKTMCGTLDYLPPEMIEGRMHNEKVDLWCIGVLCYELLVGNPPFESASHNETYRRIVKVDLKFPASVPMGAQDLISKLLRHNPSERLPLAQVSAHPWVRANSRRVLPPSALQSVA
IR (h), activated (human), sequence (P06213 1005-1310 limits assumed): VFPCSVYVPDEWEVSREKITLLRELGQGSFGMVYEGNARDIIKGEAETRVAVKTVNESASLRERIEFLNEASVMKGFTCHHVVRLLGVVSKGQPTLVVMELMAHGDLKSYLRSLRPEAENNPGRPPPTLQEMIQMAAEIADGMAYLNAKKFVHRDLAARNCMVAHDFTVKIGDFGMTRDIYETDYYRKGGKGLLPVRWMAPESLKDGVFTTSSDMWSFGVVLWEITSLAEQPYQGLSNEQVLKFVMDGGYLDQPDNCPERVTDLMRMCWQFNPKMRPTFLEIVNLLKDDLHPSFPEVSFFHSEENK
Abl (H396P) (h) (human), sequence (P00519 27-1130 H396P limits assumed): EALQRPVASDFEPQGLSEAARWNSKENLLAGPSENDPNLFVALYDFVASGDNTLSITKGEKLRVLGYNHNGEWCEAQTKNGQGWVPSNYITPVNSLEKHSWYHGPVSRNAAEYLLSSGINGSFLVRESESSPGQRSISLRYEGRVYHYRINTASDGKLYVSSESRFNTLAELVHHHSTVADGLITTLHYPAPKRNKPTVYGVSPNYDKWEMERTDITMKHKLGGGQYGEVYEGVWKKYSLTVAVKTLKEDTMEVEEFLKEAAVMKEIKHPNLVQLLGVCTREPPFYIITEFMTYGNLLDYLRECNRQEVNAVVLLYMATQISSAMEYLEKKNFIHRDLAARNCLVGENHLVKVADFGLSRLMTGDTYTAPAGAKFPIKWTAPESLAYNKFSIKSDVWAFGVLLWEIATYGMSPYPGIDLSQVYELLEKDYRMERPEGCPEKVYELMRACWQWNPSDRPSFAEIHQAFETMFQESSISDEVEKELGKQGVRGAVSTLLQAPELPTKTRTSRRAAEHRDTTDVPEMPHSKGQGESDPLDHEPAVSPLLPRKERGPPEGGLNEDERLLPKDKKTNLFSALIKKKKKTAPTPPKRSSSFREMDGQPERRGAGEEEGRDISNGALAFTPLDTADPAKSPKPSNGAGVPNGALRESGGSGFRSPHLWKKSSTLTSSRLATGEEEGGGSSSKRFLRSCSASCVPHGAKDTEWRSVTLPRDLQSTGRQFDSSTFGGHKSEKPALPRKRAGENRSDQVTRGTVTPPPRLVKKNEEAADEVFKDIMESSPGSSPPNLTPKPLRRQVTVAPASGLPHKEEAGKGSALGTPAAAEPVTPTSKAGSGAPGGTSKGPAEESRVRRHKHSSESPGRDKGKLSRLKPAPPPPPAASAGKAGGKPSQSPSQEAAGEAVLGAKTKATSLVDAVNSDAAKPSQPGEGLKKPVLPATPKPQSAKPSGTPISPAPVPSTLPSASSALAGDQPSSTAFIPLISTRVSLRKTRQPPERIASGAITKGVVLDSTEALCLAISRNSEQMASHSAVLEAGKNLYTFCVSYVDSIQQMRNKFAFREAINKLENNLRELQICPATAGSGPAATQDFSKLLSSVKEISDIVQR
cKit (h) (human), sequence (P10721 544-976): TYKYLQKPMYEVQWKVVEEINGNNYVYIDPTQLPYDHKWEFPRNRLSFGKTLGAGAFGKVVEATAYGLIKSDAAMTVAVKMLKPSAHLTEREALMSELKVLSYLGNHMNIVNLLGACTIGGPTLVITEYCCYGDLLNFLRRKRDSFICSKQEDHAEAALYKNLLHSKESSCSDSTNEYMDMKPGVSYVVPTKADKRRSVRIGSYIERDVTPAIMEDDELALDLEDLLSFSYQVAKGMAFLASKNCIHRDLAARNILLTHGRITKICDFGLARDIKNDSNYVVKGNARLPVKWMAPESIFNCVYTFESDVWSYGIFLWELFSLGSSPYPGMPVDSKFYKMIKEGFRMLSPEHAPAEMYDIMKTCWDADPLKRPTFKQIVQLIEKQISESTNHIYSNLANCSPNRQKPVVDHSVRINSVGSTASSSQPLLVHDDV
Arg (h) (human), sequence (P42684 38-1182 limits assumed): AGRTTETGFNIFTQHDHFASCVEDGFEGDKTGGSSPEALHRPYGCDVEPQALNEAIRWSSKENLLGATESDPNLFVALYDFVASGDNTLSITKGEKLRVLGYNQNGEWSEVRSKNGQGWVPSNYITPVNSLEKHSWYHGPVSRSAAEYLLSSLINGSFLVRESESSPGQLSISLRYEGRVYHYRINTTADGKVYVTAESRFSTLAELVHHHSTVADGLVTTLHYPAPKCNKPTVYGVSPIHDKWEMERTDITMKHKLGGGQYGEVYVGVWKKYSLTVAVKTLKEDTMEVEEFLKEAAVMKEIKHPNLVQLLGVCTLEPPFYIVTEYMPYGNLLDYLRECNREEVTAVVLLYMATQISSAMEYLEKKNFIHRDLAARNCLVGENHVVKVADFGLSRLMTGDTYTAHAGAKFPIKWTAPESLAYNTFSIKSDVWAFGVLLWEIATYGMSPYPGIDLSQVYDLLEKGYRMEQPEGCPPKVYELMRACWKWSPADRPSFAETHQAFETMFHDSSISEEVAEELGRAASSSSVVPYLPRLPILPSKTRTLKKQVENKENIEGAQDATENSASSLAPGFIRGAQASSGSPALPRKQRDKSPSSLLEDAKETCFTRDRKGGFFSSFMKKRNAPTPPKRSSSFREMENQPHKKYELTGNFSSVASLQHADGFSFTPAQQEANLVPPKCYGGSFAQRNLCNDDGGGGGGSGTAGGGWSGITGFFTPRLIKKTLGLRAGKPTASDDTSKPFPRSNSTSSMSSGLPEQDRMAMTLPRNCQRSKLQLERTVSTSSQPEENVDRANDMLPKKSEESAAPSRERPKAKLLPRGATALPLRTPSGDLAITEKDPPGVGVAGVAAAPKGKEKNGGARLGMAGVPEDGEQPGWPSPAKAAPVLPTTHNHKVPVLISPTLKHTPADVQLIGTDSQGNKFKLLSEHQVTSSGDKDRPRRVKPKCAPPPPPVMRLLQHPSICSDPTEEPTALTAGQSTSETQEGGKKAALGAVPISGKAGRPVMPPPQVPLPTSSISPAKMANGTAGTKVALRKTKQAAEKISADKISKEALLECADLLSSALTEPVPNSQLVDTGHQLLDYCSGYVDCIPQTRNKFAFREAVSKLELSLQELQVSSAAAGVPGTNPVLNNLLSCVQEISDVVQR
EphA2 (h) (human), sequence (P29317 559-976 limits assumed): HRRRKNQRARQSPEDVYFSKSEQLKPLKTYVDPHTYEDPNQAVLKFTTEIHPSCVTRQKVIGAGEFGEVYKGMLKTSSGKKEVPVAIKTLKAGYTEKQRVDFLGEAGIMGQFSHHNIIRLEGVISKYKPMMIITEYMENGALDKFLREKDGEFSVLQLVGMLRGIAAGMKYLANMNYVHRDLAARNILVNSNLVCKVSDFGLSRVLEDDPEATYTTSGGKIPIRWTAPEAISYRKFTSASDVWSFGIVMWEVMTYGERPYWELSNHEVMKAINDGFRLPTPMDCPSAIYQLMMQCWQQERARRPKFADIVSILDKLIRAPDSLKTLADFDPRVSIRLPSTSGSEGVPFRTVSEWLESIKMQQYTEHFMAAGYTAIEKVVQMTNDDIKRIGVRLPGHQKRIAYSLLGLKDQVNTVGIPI
EphB3 (h) (human), sequence (P54753 581-998 limits assumed): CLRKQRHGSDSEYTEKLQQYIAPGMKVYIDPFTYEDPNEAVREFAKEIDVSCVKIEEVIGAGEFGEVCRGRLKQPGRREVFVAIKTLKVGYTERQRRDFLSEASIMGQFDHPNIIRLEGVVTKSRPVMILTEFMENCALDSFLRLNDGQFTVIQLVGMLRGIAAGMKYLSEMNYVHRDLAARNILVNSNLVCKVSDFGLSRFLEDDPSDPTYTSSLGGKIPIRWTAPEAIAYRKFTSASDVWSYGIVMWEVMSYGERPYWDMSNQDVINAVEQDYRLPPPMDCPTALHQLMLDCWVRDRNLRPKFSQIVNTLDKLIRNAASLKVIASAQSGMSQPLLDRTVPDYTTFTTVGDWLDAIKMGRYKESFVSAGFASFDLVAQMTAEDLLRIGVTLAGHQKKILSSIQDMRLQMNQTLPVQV

On to MMI-0300 (peptide), for which the % activity at 100 µM with EphB3 (h) (human) stood at 62%; in the assay with ARK5 (h) (human), 78%; in assay [1], 79%; in assay [2], 82%; with Fes (h) (human), 20%; in assay [3], 85%. For the same substance, the % activity at 100 µM with EphA7 (h) (human) worked out at 159%; with cKit (h) (human), 53%; with SRPK1 (h) (human), 90%; with EphA2 (h) (human), 31%; with MSK2 (h) (human), 56%; in the assay with Met(Y1248C) (h) (human) it was 84%. For the same substance, the % activity at 100 µM with Flt1 (h) (human) stood at 69%; with Yes (h) (human), 67%; in the assay with IRAK4 (h) (human), 59%; with Aurora-B (h) (human), 128%; with MEK1 (h) (human), 77%; with Arg (h) (human), 72%. In addition, the % activity at 100 µM was determined as 101% in the assay with Abl (H396P) (h) (human) and 88% in the assay with Rse (h) (human).
